Laboratory results as given in patent publication EP4480965A1 (Vect-Horus, dated 2024).
Changes are numbered by the printed parent chain. Like-named read-outs stand apart in the source and are kept apart here.

What was measured:
[1] = target: T1, mouse transferrin receptor fused to EGFP, expressed on CHO cells (mouse, UniProt Q62351 1-763); assay: flow cytometry, CHO-mTfR-EGFP cells
T1 construct: whole, on cells; also called mTfR; mouse TfR

[2] = target: T2, human transferrin receptor fused to EGFP, expressed on CHO cells (human, UniProt P02786 1-760); assay: flow cytometry, CHO-hTfR-EGFP cells
T2 construct: whole, on cells; also called hTfR; human TfR
T2 sequence (P02786 whole entry, the tested form may be a part): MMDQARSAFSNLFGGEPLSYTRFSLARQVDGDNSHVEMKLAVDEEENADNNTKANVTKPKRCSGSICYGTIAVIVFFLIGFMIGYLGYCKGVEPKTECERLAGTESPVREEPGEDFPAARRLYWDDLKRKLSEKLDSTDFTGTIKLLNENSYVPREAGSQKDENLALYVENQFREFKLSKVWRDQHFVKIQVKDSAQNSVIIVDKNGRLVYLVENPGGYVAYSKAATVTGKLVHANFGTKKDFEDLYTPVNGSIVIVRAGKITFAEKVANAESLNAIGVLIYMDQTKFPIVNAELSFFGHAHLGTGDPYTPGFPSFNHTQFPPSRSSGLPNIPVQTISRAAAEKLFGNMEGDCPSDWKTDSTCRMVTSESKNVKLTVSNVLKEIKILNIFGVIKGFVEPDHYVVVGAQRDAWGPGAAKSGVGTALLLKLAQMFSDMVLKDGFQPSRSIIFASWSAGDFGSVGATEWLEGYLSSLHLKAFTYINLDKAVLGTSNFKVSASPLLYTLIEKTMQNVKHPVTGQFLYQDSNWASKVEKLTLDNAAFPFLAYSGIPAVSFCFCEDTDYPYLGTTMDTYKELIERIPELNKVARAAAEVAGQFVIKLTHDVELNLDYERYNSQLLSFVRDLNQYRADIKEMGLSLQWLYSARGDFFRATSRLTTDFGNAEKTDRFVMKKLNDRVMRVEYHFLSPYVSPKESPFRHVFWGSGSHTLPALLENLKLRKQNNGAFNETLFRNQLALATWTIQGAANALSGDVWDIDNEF

[3] = target: T3, mouse TfR ectodomain fused to a mouse IgG1 Fc fragment (mouse, UniProt Q62351 89-763); assay: SPR (Biacore T200)
T3 construct: extracellular domain; produced in-house; not shown: mouse IgG1 Fc fragment
T3 sequence (Q62351 89-763): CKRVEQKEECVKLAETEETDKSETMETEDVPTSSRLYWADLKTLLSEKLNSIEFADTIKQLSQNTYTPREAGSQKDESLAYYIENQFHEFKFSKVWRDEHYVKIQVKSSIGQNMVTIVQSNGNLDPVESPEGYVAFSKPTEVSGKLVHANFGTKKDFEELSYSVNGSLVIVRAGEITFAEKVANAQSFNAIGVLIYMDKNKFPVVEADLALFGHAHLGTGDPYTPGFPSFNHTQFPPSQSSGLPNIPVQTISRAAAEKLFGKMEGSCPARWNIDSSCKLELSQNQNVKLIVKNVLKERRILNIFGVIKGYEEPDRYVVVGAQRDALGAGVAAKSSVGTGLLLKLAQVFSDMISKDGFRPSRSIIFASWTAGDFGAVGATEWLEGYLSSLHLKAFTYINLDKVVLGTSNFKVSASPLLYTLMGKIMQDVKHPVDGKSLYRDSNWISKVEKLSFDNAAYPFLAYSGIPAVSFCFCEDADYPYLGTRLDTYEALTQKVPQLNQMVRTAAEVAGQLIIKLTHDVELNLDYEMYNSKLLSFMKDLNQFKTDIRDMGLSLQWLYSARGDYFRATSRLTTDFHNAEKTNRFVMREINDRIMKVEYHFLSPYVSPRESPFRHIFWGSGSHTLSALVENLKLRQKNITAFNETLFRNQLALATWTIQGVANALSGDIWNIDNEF

[4] = target: T4, rhesus monkey transferrin receptor fused to EGFP, expressed on CHO cells (rhesus monkey, UniProt H9EXL1 1-760); assay: flow cytometry, CHO-rhTfR-EGFP cells, apparent Kd
T4 construct: also called rhTfR; rhesus monkey TfR; not shown: EGFP fused to the cytoplasmic end of the receptor
T4 sequence (H9EXL1 entry or part of it limits assumed, form in doubt): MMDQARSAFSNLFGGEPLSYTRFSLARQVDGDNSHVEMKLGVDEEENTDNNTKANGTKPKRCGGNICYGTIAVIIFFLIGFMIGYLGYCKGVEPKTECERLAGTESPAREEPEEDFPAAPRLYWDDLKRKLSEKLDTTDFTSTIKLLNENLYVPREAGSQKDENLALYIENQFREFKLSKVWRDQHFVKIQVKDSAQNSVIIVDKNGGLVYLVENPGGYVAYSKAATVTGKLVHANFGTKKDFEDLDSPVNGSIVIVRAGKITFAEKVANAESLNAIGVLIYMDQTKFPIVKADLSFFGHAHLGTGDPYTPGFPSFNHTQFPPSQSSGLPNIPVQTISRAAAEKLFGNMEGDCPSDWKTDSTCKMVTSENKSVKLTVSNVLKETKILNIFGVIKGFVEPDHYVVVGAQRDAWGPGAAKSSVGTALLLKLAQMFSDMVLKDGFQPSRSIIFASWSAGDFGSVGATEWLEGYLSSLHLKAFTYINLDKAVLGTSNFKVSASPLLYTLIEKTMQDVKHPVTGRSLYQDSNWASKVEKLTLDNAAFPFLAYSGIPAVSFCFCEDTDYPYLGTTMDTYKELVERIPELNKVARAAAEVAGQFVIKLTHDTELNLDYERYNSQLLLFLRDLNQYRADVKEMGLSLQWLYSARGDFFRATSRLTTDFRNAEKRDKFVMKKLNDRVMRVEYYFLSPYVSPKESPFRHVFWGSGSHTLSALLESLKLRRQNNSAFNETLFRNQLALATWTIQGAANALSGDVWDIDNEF

[5] = target: T1, mouse transferrin receptor fused to …; assay: flow cytometry, CHO-mTfR-EGFP cells, apparent Kd
[6] = target: T2, human transferrin receptor fused to …; assay: flow cytometry, CHO-hTfR-EGFP cells, apparent Kd
[7] = target: murine TfR expressed by murine neuroblastoma Neuro-2a cells (mouse, UniProt Q62351 1-763); assay: cell-based or functional assay
Sequence of murine TfR expressed by murine neuroblastoma Neuro-2a cells (Q62351 whole entry, the tested form may be a part): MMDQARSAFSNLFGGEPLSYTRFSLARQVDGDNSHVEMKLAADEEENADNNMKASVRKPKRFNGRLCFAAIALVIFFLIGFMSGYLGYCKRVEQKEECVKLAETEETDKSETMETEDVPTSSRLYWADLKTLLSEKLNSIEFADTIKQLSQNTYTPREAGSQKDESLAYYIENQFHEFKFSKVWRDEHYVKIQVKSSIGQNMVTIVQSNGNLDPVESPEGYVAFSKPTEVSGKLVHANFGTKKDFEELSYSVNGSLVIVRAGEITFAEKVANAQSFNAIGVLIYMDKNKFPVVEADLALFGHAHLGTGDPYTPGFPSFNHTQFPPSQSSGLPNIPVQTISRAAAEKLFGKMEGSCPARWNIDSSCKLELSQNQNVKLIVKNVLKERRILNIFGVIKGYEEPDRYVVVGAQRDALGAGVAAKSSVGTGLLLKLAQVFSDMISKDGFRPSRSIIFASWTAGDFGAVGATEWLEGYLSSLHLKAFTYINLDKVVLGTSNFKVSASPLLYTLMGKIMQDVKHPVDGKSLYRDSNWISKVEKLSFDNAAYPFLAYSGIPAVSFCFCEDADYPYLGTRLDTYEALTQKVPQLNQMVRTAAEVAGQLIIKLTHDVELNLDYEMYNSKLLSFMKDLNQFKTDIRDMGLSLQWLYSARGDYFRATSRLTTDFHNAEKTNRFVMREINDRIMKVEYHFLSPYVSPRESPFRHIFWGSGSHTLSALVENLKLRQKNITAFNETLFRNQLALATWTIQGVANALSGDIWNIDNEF

[8] = target: T2, human transferrin receptor fused to …; assay: cell-based or functional assay
[9] = target: T1, mouse transferrin receptor fused to …; assay: flow cytometry, CHO-mTfR-EGFP cells, apparent Kd; remark: listed apart in the source

T1 sequence (Q62351 whole entry, the tested form may be a part): as above

B1: VHH A17 (C5^V17) (VHH)
VHH: EVQLVESGGGVVQPGGSLKLSCVASGTDFSINFIRWYRQAPGKQREFVAGFTATGNTNYADSMKGRFTISRDNTKNAVYLQIDSLKPEDTAVYYCYMIDKWGQGTQVTVSS
Does B1 bind [1]?
Result: binds

Does B1 bind [2]?
Result: binds

B2: VHH D (H3) (VHH)
VHH: EVQLVESGGGEVQPGGSLKLSCVASGTDFSINFVRWYRQRPGKQREWVAGFTANGDTNYPDSMKGRFTISRDNAKNTVYLQINSLKSEDTAVYYCYMLDNWGQGTQVTVSS
Which kon [3] does the source give for B2 here?
Its kon is 5.81e+06 M⁻¹ s⁻¹.

B3: VHH A19 (C5^V19) (VHH)
VHH: B1 VHH with I98L, D99E
Does B3 bind [1]?
Result: binds

B4: B8^V9 (VHH)
VHH: EVQLVESGGGVVQPGGSLRLSCAASGEIFSINFMRWYRQAPGKQREWVAGFTRDGSKNYPDSAKGRFTISRDNAKNTVYLQIDSLKPEDTAVYYCYMLDTWGQGTQVTVSS
How did the Kd [4] turn out when B4 was run?
Its Kd is 24 nM.

B5: E9 (VHH)
VHH: EVQLVESGGGLVQPGGSLRLSCVSSATFGGYSMGWFRQAPGKEREFVAAITWNGGIIKDYADGVMGRFTISRNSALNTVYLQMDSLKSTDTGVYVCAGDRTYYAGGYVPTSEREYAFWGQGTQVTVSS
With B5 as the binder, how does the Kd [4] read?
Its Kd is 1540 nM.

What about the Kd [5] of the same binder?
The Kd was 1310 nM.

What about the Kd [6] of the same binder?
Its Kd is 1290 nM.

B6: C5-siSOD1m-5'VP (other)
VHH: EVQLVESGGGVVQPGGSLKLSCVASGTDFSINFIRWYRQAPGKQREFVAGFTATGNTNYADSMKGRFTISRDNTKNAVYLQIDSLKPEDTAVYYCYMLDKWGQGTQVTVSSAAAEQKLISEEDLNGAAHHHHHHGS
modifications: siSOD1m-5'VP siRNA (SEQ ID NOs 465/466) linked by a stable linker to the tag
For B6, which “mean IC50 of mSOD1 mRNA downregulation, free uptake on Neuro-2a cells” value [7] is on record?
Its value is 7.4 nM.

B7: VHH A-siGFPst1 bioconjugate (other)
VHH: B6 VHH
modifications: siGFPst1 siRNA (3' end of sense strand, DBCO) clicked to 3-azido-1-propanamine on the Gln of the C-terminal Q-tag
B7 was tested. Which “IC50 of the reduction of GFP protein levels, 6-hour pulse and chase to 120 hrs” value [8] did it give?
The value was 1.24 nM.

What about the “IC50 of the reduction of GFP protein levels, free uptake 120 hrs” value [8] of the same binder?
Its value is 2.73 nM.

B8: VHH A6 (C5^V6) (VHH)
VHH: B1 VHH with M97A, I98L
What does the source list for B8?
binding result [1]: binds; binding result [2]: binds

B9: 13C3-LC-VHH A (bispecific antibody)
heavy: QVQLQQSGPELVRPGVSVKISCKGSGYTFTDYAMHWVKQSHAKSLEWIGVISTKYGKTNYNQKFKGKATMTVDKSSSTAYMELARLTSEDSAIYYCARGDDGYSWGQGTSVTVSSAKTTPPSVYPLAPGSAAQTNSMVTLGCLVKGYFPEPVTVTWNSGSLSSGVHTFPAVLQSDLYTLSSSVTVPSSTWPSETVTCNVAHPASSTKVDKKIVPRDCGCKPCICTVPEVSSVFIFPPKPKDVLTITLTPKVTCVVVDISKDDPEVQFSWFVDDVEVHTAQTQPREEQFNSTFRSVSELPIMHQDWLNGKEFKCRVNSAAFPAPIEKTISKTKGRPKAPQVYTIPPPKEQMAKDKVSLTCMITDFFPEDITVEWQWNGQPAENYKNTQPIMDTDGSYFVYSKLNVQKSNWEAGNTFTCSVLHEGLHNHHTEKSLSHSPG
light: DVVMTQTPLSLPVSLGDQASISCRSGQSLVHSNGNTYLHWYLQKPGQSPKLLIYTVSNRFSGVPDRFSGSGSGSDFTLKISRVEAEDLGVYFCSQNTFVPWTFGGGTKLEIKRADAAPTVSIFPPSSEQLTSGGASVVCFLNNFYPKDINVKWKIDGSERQNGVLNSWTDQDSKDSTYSMSSTLTLTKDEYERHNSYTCEATHKTSTSPIVKSFNRNECSGSGGGGGMAEVQLVESGGGVVQPGGSLKLSCVASGTDFSINFIRWYRQAPGKQREFVAGFTATGNTNYADSMKGRFTISRDNTKNAVYLQIDSLKPEDTAVYYCYMLDKWGQGTQVTVSSAAA
Which Kd [9] does the source give for B9 here?
Its Kd is 106 nM.
